Source: patent WO2009030872A1 (dated 2009)

B1: human monoclonal antibody clone 1:7 (antibody, V domains shown)
VH: VQLLEQSGAEVKKPGSSVKVSCQVFGDTFSRYTIQWLRQAPGQGPEWMGNIIPVYNTPNYAQKFQGRLSITADDSTSTAYMELSSLRSEDTAVYFCARVVIPNAIRHTMGYYFDYWGQGTLVTVSS
VL: AELTQSPATLSLSPGERATLSCRASQSVNKYLAWYQQKPGQAPRLLIYDASNRATGIPARFSGSGSGTDFTLTISNLEPEDFAVYYCQQRSDWVTFGGGTKVEIK
notes: also called mAb 1:7
B2: human monoclonal antibody clone L1 (antibody, V domains shown)
VH: EVQLLESGGGVVQPGRSLRLSCAASGFTFSAYGMHWVRQAPGKGLEWVAGIWFDGSNQYYSDSVKGRFTVSRDNSRNTLFLQMNSLRPEDTAVYYCATEVLFGSIKGRYYLENWGQGTLVTVSS
VL: AELTQSPGTLSLSVGERATLSCRASQNIYSGYLGWYQQKPGQPPRLLIYGASNRATGIPDRFSGSGSGTDFTLTISRLESEDFAVYYCQQYGSPPYTFGQGTKVEIK
notes: also called mAb L1; Ll
B3: human monoclonal antibody clone A8 (antibody, V domains shown)
VH: EVQLLESGPGLVKPSGTLSLTCTVSGGSIRSSHWWSWVRQPPGKGLEWIGEVFFSGSTIYNPSLNDRVFMSVDKSKDQVSLRLSSVTAADTAVYYCARSPIKMNQGRMMLDAFDIWGQGTLVIVSS
VL: AELTQSPSSLSAFVGDRVTITCRASQSISRNLNWYQQKPGTAPKVLIYAASSLQSGVPSRFSGSGSGTDFTLTITSLQPEDFATYYCQQSYTTPRTFGQGTKVEVK
notes: also called mAb A8

Tests used:
[1] = molecular target: T1, E1E2 of HCV genotype 1a isolate H77c (hepatitis C virus genotype 1a, strain …, UniProt P27958 386-729; P27958 193-382); assay: inferred from GNA capture ELISA binding curve by non-linear regression
[2] = molecular target: T1, E1E2 of HCV genotype 1a isolate H77c; assay: GNA capture ELISA on E1E2 of H77c
[3] = molecular target: E1E2 of HCV isolate H77c with E2 substitution G523A (hepatitis C virus genotype 1a, isolate …, UniProt P27958 386-729; P27958 193-382); assay: GNA capture ELISA on alanine-substituted H77c E1E2
[4] = molecular target: E1E2 of HCV isolate H77c with E2 substitution G530A (hepatitis C virus genotype 1a, isolate …, UniProt P27958 386-729; P27958 193-382); assay: GNA capture ELISA on alanine-substituted H77c E1E2
[5] = molecular target: E1E2 of HCV isolate H77c with E2 substitution D535A (hepatitis C virus genotype 1a, isolate …, UniProt P27958 386-729; P27958 193-382); assay: GNA capture ELISA on alanine-substituted H77c E1E2
[6] = molecular target: E1E2 of HCV isolate H77c with E2 substitution W529A (hepatitis C virus genotype 1a, isolate …, UniProt P27958 386-729; P27958 193-382); assay: GNA capture ELISA on alanine-substituted H77c E1E2
[7] = molecular target: E1E2 of HCV genotype 2a isolate JFH-1 (hepatitis C virus genotype 2a, isolate …); assay: cell-based or functional assay

Binder | Kd [1] [nM] | EC50 [2] [µg/mL] | binding result [3] | binding result [4] | binding result [5] | binding result [6] | IC50 of neutralization of HCVcc JFH-1 (density of E2 after western blotting) [7] [µg/mL]
B1 | ~4.1 | 0.67 | no binding | no binding | no binding | no binding | ~0.06
B2 | ~15 | 2.31 | – | – | – | – | –
B3 | ~2.7 | 0.44 | no binding | no binding | no binding | no binding | ~0.56
